In the nanobody polyreactivity screen of Harvey et al. (2022):

Test: yeast display, Sf9 membrane polyspecificity reagent, FACS + sequencing; frameworks hold sequencing errors
In short: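 Sorting gates, low and high (top ~1%), were placed on anti-HA fluorescence to track expression and on streptavidin fluorescence to track reagent binding. A clone's polyreactivity label is taken from the gate it came out of. The reagent was 10% biotinylated, detergent-solubilized Sf9 membrane, applied for 1 hour at 4 °C to galactose-induced yeast display cells.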

Row | Sequence | polyreactivity (PSR sort gate)
1 | QVQLVESGGGLVQAGGSLRLNCAASGRIFVGNTMGWDRQAPGKERELVAAITVRGGSTYYADSVKGRFTISRDNAKNTVYLQMNSLKPEDTAVYYCAARRRIFPPRFGYWGQGTQVTVSS | high polyreactivity
2 | QVQLVESGGGLVQAGGSLRLRCAASGFTFRYYALAWYRPAPGKERELVAAISGSGGSTYYADSVKGRFTISRDNAKNTVYLQMNSLKPEDTAVYYCNALSARSRLQSDYWGQGTQVTVSS | high polyreactivity
3 | QVQLVESGGGLVQAGGSLRLRCAASGFTFTAYAMGWYRQAPGKERELVAAITWRDGITYYADSVKGRFTISRDNAKNTVYLQMNSLKPEDTADYYCAASWSTEYYWGQGTQVTVSS | high polyreactivity
4 | QVQLVESGGGLVQAGGSLRLRCAASGFTIGYNVMGLYRQAPGKERELVATISWNGARTYYADSVKGRFTISRDNAKNTVYLQMNSLKPEDTAVYYCAARRYYRGEYDYWGQGTQVTVSS | low polyreactivity
5 | QVQLVESGGGLVQAGGSLRLRCAASGFTLLWNSMGWYRQAPGKEREFVAVISSGGSTNYADSVKGRFTISRDNAKNTVYLQMNSLKPEDTAVYYCATRRPSSSSAAAWFYYWGQGTQVTVSS | low polyreactivity
6 | QVQLVESGGGLVQAGGSLRLRCAASGGTFNVYAMGWYRQAPGKERELVARITWNGGRTSYADSVKGRFTISRDNAKNTVYLQMNSLKPEDTAVYFCAAETRYKRIYPYGRATEDYWGQGTQVTVSS | high polyreactivity
7 | QVQLVESGGGLVQAGGSLRLRCAASGIIFSYYAMGLSRQAPGKERELFAAISSSGSTNYADSVKGRFTISRDNAKNTVYLQMNSLKPEDTAVYYCNAGYGRRVYVYSFKLRYNYWGQGTQVTVSS | high polyreactivity
8 | QVQLVESGGGLVQAGGSLRLRCAASGITFRNYAMGWYRQAPGKEMEFVATISRRAGSTYYADSVKGRFTISRDNAKNTVYLQMNRLKPEDTAVYYCAVRPSYVYFLGARYDYWGQGTQVTVSS | high polyreactivity
9 | QVQLVESGGGLVQAGGSLRLRCAASGITFSRNAMGAYRQAPGKERELVATITSGGSTNYADSVKGRFTISRDNAKNTVYLQMNSLKPEDTAVYYCNADWNTFISGRSYDYWGQGTQVTVSS | low polyreactivity
10 | QVQLVESGGGLVQAGGSLRLRCAASGLTFTGNAMGWYRQAPGKEREFVAAIRWSAGSTYYADSVKARFTISRDNAKNTVYLHMNSLKPEDTAVYYCKAALNVSGHYTNDSWGQGTQVTLSS | low polyreactivity
11 | QVQLVESGGGLVQAGGSLRLRCAASGLTFVDNAMGWYSQAPGKERELVAAITKRGGRTYYADSVKGRFTISRDNAKNTVYLQMNSLKPEDPAVYYCARDSGNDSSRRLDYWGQGTQVTVSS | low polyreactivity
12 | QVQLVESGGGLVQAGGSLRLRCAASGNIFYGNAMGWYRQAPGKERELVAGITSGGSTNYADSVKGRFTISRDNAKNTVYLQMNSLKPEDTAVYYCNATSSGSIFGYDYWGQGTQVTVSS | low polyreactivity
13 | QVQLVESGGGLVQAGGSLRLRCAASGRIFGFYAMGWYRQAPGKERELVAAITSSAGRTRYADSVKGRFTISRDNAKNTVYLQMNSLKPEDTAVYYCAARTVGRKAGFDYWGQGTQVTVSS | high polyreactivity
14 | QVQLVESGGGLVQAGGSLRLRCAASGRIFRLYAMGWYRQAPGKERELVAAIRSSGGSTYADSVKGRFTISRDNAKNTVYLHMNSLKPEDTAVYYCAARWGRLPEQYRYDYWGQGTQVTVSS | high polyreactivity
15 | QVQLVESGGGLVQAGGSLRLRCAASGRIFRYYAMGWYRQAPGKESELVAAITSSGGSTFYADSVKARFTISRDNAKNTVYLQMNSLKPEDTAVYYCAAPRGTRKTYNSWGQGTQVTVSS | high polyreactivity
16 | QVQLVESGGGLVQAGGSLRLRCAASGRIFVPYVMGWYRQAPGKERELVASISDSDTSTYYADSVKGRFTISRDNAKNTVYLQMNSLKPEDTAVYYCNVDYWGQGTQVTVSS | low polyreactivity
17 | QVQLVESGGGLVQAGGSLRLRCAASGRIYCDNATGRYRQAPGKESELVAPISDSVVITYYADSVKGRFTISRDNAKNTLYVQMNSLKPEDTAVYYCAADKRGTVYLSSFWMDYWGQGTQVTVSS | low polyreactivity
18 | QVQLVESGGGLVQAGGSLRLRCAASGRTFDTYAMGWYRQAPWKERELVASITYRGGSTYYADSVKGRFTITRDNAKNTVYLQMNSLKPEDTAVYYCNAKVKRNKRWRGYWGQGTQVTVSS | high polyreactivity
19 | QVQLVESGGGLVQAGGSLRLRCAASGRTFGGNAMGWYRQAPGKERELVAAISFSGGSTYYADSVKGRFTISRDNAKNTVYLQMNSLKPEDTAVYYCAARYYWSVYADQGDYWGQGTQVTVSS | low polyreactivity
20 | QVQLVESGGGLVQAGGSLRLRCAASGRTFYGYDMGWYRQAPGKERELVATISSGGSTNYADSVKGRFTFSRDNAKNTVYLQMNSLKPEDTAVYYCNADRYVDPRTYFGYDYCGQGTQVTVSS | low polyreactivity
21 | QVQLVESGGGLVQAGGSLRLRCAASGSIFESNAMGWYRQAPGKETEFVAAIDQNDGSTYYADSVKGRFTISRDNAKNTVYLQMNSLKPDDTAVYYCAARCYVYRLTWGDYWGQGTQVTVSS | low polyreactivity
22 | QVQLVESGGGLVQAGGSLRLRCAASGSIFIGYAMGWYRQAPGKERELVAAITSGSITNYAYSVKGRFTISRDNAKNTVYLLMNSLKPEDTAVYYCNADVNFIDDDYWGQGTQVTVSS | low polyreactivity

Row | Sequence | polyreactivity (PSR sort gate)
23 | QVQLVESGGGLVQAGGSLRLRCAASGSIFNSYAMGWYRPAPGKERELVAAISIRGTRTYYADSVKGRFTISRDNAKNTVSLQMNSLKPEDSAVSYCAADASSTEGMDFWGQGTQLTVSS | high polyreactivity
24 | QVQLVESGGGLVQAGGSLRLRCAASGSIFVSNTMGWYRQAPGKEREMVASIRETAGSTNYADSVKGRFTISRDYAKNTVYLQMNSLKPEDTEVYYCAARYSPTRYHYGYWGQGTQVTVSS | low polyreactivity
25 | QVQLVESGGGLVQAGGSLRLRCAASGSSFIWNAMGWYRQAPGKERELVAAISSGGSTYYADSVKGRFTISRDNAKNTVDLQMNSQKPPDTAVYYCAAEYVNNVWEQSYAVYSTDDYWGQGTQVTVSS | low polyreactivity
26 | QVQLVESGGGLVQAGGSLRLRCAASGSTFAVYAMGWYRQAPGKERELVATIRWNGGSTYYADSVKGRFTISRDNAKNTVYLQMNSLKPEDTAVYYCAAPPIRPNLYDYWGQGTQVTVSS | high polyreactivity
27 | QVQLVESGGGLVQAGGSLRLRCAASGSTFAYYAMGWYRQAPGKERELVAAITASATNTYYADSVKGRFTISRDHAKNTVYLQMNSLKPEDTAVYYCAADDVDVEHQASWDDYDSWGQGTQVTVSS | low polyreactivity
28 | QVQLVESGGGLVQAGGSLRLRCAASGSTFLKNAKGWYRQAPGKERELVAAISYSTTRSYYADSVKGRFTISRDNAKNTVYLQMNSLKPEDTAVYYCAADGYWWTYTRYDYWGQGTQVTVSS | low polyreactivity
29 | QVQLVESGGGLVQAGGSLRLRCAASGSTFPYNAMGWYRQAPGKERELVAAITSAVGTNYADSVKGRVTISRDNAKNTVYLQMNSLKREDTAVYYCAARYIETPLTVLSLMDYWGQGTQVTVSS | low polyreactivity
30 | QVQLVESGGGLVQAGGSLRLRCAASGSTFSRYTMGWYRQAPGKERELVAAISKSGGSTYYADSVKGRFTISRDNAKNTVYLQMNSLKPEDTAVYYCAALVRAGTSLDFDYWGQGTQVTVSS | high polyreactivity
31 | QVQLVESGGGLVQAGGSLRLRCAASGSTFSSYAMGWYRQAPGKERELVAAISSRGGRTYYADSVKARFTISRDNAKNTVYLQMNRLIPEDTAVYYCAADWGVRDEYYYWGQGTQVSVSS | high polyreactivity
32 | QVQLVESGGGLVQAGGSLRLRCAASGSTFSTNAMGWYSQAPGKERELVASITRSGGSTYYADSVKGRFTISRDNAKNTFYLQMTSLKPEDTAVYYCNADGYYDYDYGFWGQGTQVTVSS | low polyreactivity
33 | QVQLVESGGGLVQAGGSLRLRCAASGSTFVYNGMGWYRQAPGKERELVATISSTGSTNYADSVKGRFTISRDNAKNTVFLQMNSLKPEDTAVYYCATEYITYLAYDYWGQGTQVTVSS | low polyreactivity
34 | QVQLVESGGGLVQAGGSLRLRCAASGSTLSNYAMGWYRQAPGKERELVAAITWSTGSTYYADSVKGRFTISRDNAKNSVYLQMNSLKPEDTAVYYCNAGSQYLLVGLYDYWGQGTQVTVSS | low polyreactivity
35 | QVQLVESGGGLVQAGGSLRLRCAASGTNSVQYAMGGYRQAPGKERELVAAIDRSGGSTSYADSVKGRFTISRDNAKNTVYLQMNSLKQEDTAVYYCNADPFRSTYSYDYWGQGTQVTVSS | low polyreactivity
36 | QVQLVESGGGLVQAGGSLRLRCAASGYIFRYYAMGWYRQAPGKEREFVAAISRNGGSTYYADSVKGRFTISRDKAKNTVYLQMNSLKPEDTAVYNCNVVGHDDKYDYWGQGTQVTVSS | high polyreactivity
37 | QVQLVESGGGLVQAGGSLRLRCAATGSTFVYNAMGWYRPAPGKVRELVARITRSGGSTYYADSVKGRFTISRDNAKNTVYLQMKSLKPEDTAVYYCAKEREGHSVRIGPRYNYWGQGSQVTVSS | low polyreactivity
38 | QVQLVESGGGLVQAGGSLRLRCASSGRTFRYNAMGWYRQAPGKERELVATISSSGGSTSYADSVKGRFTISRDNAKKTVYLQMNSLKPEDTAVYYCNKRRLVAAGNGMDSWGQGTQVTVSS | low polyreactivity
39 | QVQLVESGGGLVQAGGSLRLRCASSGSIFHRNAMGWYRQAPGKERELVATITSNGGSTYYADSVKGRFTISRDNAKNTVFLHMNRLKPEDTAVYFCARKYRSPISALLTGDYWGQGTEVTVSS | low polyreactivity
40 | QVQLVESGGGLVQAGGSLRLRCATSGSIFRIYAMGWYRQAPGKERELVAAIDSGGSTNYADYVKGRFTISRDNAKNTVYFQMNCLKPEDTAVFYCNVEAWWLSYSEYDYWGQGTQVTVSS | high polyreactivity
41 | QVQLVESGGGLVQAGGSLRLRCPASGFIFFWNTMGWYRQAPGKERELVAAISQSGDSTYYADSVKGRFTISRDSAKNTVYLQMNSLKPEDTAVYFWAADKKTITYRYDYWGLGTQVTVSS | low polyreactivity
42 | QVQLVESGGGLVQAGGSLRLRGAASGSTFIFNVRGWYRQAPGKERELVAVISWSGGSTYYADSVKGRFTISRDNAKNTVYLQMNSLKPEDTAVYYCARDQTFGPSPYDWYYYPGYDYWGQGTQVTVSS | low polyreactivity
43 | QVQLVESGGGLVQAGGSLRLRSPASGSTLYRYAMGWYRQAPGKERELVAAIYSSGGTTFYADSVKGRFTISRDNAKKTVYLQMKSLKPEDTAVYYCNRTARKLRTVHSSVVGLDYWGQGTQVTVSS | low polyreactivity
